Series [1] is described as follows: Acute toxicity in Balb/c mice. Format: in vivo, mouse. As to the method: FIGS. 6A to 6C show the toxicity of Zt/g4-DM1 in vivo. Body weight was measured every four days during the period of Zt/g4-DM1 treatment. FIG. 6A: Effect of multiple doses of Zt/g4-DM1 on mouse body weight was determined by administration of Zt/g4-DM1 at 1, 3, 7, 10, 15 mg/kg every four day with a total of 5 injections. Mice were weighed and monitored for a total of 31 days. FIG. 6B: Effect of a single dose of Zt/g4 at 20 mg/kg on mouse body weight was determined using mice bearing HT29, HCT116, or SW620-derived tumors. Body weight was monitored up to 28 days. FIG. 6C: Effect of high doses of Zt/G4-DM1 on mouse body weight was analyzed by tail vein injection at 20, 40 and 60 mg/kg to Balb/c mice. Mice were euthanized at day 21. In all cases, the average body weight of mice before Zt/g4-DM1 injection was 19.8±3.6 grams (5 mice per group) and set as 100%;
In vivo toxicity studies: Acute toxicity with maximum tolerated dose was determined in Balb/C mice (four mice per dose) by a single tail vein injection of Zt/g4-DM1 at 20, 40, and 60 mg/kg body weight. Toxicity associated with different therapeutic doses was evaluated in athymic nude mice bearing HT29 tumor xenograft (five mice per dose). […] Toxicity was assessed by observing mouse behavior, weight loss, and survival.
Toxic effect of Zt/g4-DM1 on mice. Three studies using two different types of mice were performed to study Zt/g4-DM1 on animal behavior and body weight. The first study addressed the impact of multi-doses of Zt/g4-DM1. Athymic nude mice were injected five times with 1, 3, […], 7, 10, 15 mg/kg of Zt/g4-DM1 and monitored every four days for a total period of 31 days. […] The second study observed the effect of a single dose of Zt/g4-DM1 at 20 mg/kg in nude mice bearing tumors derived from HT29, HCT116, and SW620 cells. […] The third study involved a single-dose injection of Zt/g4-DM1 at 20, 40, and 60 mg/kg in Balb/c mice monitored for 24 days (FIG. 6C). […] Also, a moderate reduction of about 6% body weight was observed within the first four days after 60 mg/kg Zt/g4-DM1 injection. Although the average body weight from this group of mice slowly recovered during the observation period, the overall average remained lower than that of control mice with a 19% difference compared to that of control mice at day 24. Thus, Zt/g4-DM1 at the multiple-dose regimen appeared to be well tolerated.

A further series has as its target cell surface RON (Homo sapiens, UniProt Q04912). Kind of series: Kinetic reduction of cell surface RON (endocytosis) in CRC cells. Format: cell-based. Further details: We selected CRC cell lines HT29, HCT116, and SW620 expressing variable levels of RON as the cellular model; host or cells: HCT116, HT29, SW620. Conditions: for time required to induce 50% RON reduction (internalization efficacy): 37° C. Here is the method: FIGS. 2A to 2F show the binding and induction of RON endocytosis by Zt/g4-DM1 in CRC cells. FIG. 2A: Levels of RON expression by different CRC cell lines: Five CRC cells lines (1×10^6 cells/ml) in PBS were incubated at 4° C. with 5 μg/ml Zt/g4 for 60 min. […] matched mouse IgG was used as the control. Cell surface RON was quantitatively determined by the immunofluorescence assay using QIFKIT® reagents from DAKO (Carpentaria, Calif.) as detailed in Materials and Methods. FIG. 2B: Binding of Zt/g4-DM1 to human CRC cell lines: HCT116, HT29, and SW620 cells (1×10^5 cells) were incubated with 5 μg Zt/g4-DM1 or Zt/c1-DM1. Free Zt/g4 and Zt/c1 was used as the control. Fluorescence intensity from individual samples was determined by flow cytometric analysis. FIG. 2C: Kinetic reduction of cell surface RON: HCT116, HT29, and SW620 cells (1×10^6 cells per dish) were treated at 37° C. with 5 μg/ml of Zt/g4-DM1, collected at different time points, washed with acidic buffer to eliminate cell surface bound IgG, and then incubated with 1 μg/mL of anti-RON mAb 2F2 Immunofluorescence was analyzed by flow cytometer using FITC-coupled anti-mouse IgG Immunofluorescence from cells treated with Zt/g4-DM1 or Zt/c1-DM1 at 4° C. was set as 100%. Internalization efficiency was calculated as the time required to achieve 50% cell surface RON reduction. FIG. 2D: RON reduction analysis by Western blotting: Cellular proteins (50 μg per lane) from cells treated with 5 μg/ml of Zt/g4 or Zt/g4-DM1 for various times were separated in an 8% SDS-PAGE under reduced conditions and transferred to the membrane. RON was detected by rabbit anti-RON antibody followed enhanced chemiluminescent reagents. The same membrane was reprobed for actin as the loading control. FIG. 2E: Quantitative measurement of RON expression: The intensity of individual RON-β chains was determined by densitometric analysis. Internalization efficiency was calculated as the time required to achieve a 50% RON reduction. FIG. 2F: Immunofluorescent localization of cytoplasmic RON: HT29 cells (1×10^5 cells per chamber) were treated at 4° C. or 37° C. with 5 μg/ml of Zt/g4-DM1 or Zt/c1-DM1 for 6 h followed by FITC-coupled anti-mouse IgG. After cell fixation, immunofluorescence was detected using the BK70 Olympus microscope equipped with a fluorescence apparatus. LAMP1 was used as a marker for protein cytoplasmic localization. DAPI was used to stain nuclear DNA;
Zt/g4-DM1-induced RON endocytosis was studied, which is a process essential for delivering DM1 into CRC cells. Zt/g4-DM1 causes a progressive reduction of cell surface RON in a time-dependent manner in all three CRC cell lines tested (FIG. 2C). Less than 20% of RON remained on the cell surface after a 48 hour treatment. […] Thus, Zt/g4-DM1 is more efficient and potent in induction of RON endocytosis.

Sequence of cell surface RON (Q04912 310-1400 limits assumed): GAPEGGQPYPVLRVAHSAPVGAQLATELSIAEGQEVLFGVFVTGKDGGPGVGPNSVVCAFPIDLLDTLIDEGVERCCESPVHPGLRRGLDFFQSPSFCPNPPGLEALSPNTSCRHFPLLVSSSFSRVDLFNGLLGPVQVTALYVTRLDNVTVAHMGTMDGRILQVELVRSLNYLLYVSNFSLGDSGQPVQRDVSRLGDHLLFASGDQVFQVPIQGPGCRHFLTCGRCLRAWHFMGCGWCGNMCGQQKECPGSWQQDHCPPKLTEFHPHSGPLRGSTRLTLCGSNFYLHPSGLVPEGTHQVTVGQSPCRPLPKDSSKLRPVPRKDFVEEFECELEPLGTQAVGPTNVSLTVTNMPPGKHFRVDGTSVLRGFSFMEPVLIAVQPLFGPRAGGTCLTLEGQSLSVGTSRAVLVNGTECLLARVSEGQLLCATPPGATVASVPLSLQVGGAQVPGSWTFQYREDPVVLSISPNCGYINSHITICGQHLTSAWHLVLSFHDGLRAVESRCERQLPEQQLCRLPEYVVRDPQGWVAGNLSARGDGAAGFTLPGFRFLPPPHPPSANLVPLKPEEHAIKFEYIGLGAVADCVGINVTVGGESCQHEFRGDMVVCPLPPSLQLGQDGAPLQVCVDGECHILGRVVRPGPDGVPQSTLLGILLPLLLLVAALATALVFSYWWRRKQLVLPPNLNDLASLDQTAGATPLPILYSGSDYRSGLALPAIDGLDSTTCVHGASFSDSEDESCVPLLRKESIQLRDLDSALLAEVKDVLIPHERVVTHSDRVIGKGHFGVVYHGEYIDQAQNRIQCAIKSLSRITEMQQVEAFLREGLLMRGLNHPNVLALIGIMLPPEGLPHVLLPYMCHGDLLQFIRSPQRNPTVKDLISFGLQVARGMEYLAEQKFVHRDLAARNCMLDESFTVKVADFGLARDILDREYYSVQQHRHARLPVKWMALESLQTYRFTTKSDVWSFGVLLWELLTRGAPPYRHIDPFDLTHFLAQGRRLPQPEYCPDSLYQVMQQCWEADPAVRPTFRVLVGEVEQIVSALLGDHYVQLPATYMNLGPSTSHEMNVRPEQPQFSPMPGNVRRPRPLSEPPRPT
Sequence of cell surface RON (Q04912 25-304 limits assumed): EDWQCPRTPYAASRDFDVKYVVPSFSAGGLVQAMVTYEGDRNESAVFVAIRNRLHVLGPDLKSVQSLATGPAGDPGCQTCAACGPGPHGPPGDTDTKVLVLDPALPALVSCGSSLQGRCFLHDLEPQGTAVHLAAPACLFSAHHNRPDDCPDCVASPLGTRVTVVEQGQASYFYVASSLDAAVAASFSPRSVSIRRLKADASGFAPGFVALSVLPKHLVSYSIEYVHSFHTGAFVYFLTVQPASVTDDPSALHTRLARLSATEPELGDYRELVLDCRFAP

B1: Zt/g4-DM1: anti-RON mouse mAb Zt/g4 conjugated to maytansinoid DM1 via non-reducible thioether linkage (SMCC), DAR about 4:1 (conjugate)
VH: EVQLQQSGAELVKPGASVKLSCTTSGFNIIDTYIHWVNQKPDQGLEWIGRIDPADGNRKSDPKFQVKATITVDTSSNTAYLQLSSLTSGDTAVYYCARGYGNLNAMDSWGQGTSVTVSS
VL: DIQMNQSPSSLSASLGDTITITCHASQNINVWLNWYQQKPGNIPKLLIYKASNLHTGVPSRFSGSGSGTGFTLTISSLQPEDIATYYCQQGQSYPLTFGGGTKLEIK
Regarding B1, the “average reduction in mouse body weight” value in series [1] (60 mg/kg) is on record as 12%. Besides, the “toxic effect on mouse behavior or body weight” value in series [1] (doses up to 40 mg/kg) is listed as “no toxic effect on mouse behavior or body weight”. The distress result in series [1] (single dose 60 mg/kg, Balb/c mice) is listed as “Moderate distress”. Besides, in series [1] (single dose 60 mg/kg, day 24), the “body weight difference compared to control mice” value was found to be 19%. The “reduction of body weight” value in series [1] (single dose 60 mg/kg, within the first four days) is “about 6%”. Also, the “time required to induce 50% RON reduction (internalization efficacy)” value in the series with cell surface RON (HCT116, 5 μg/ml) amounted to 12.26 h; with cell surface RON (HT29, 5 μg/ml) it was 11.02 h; with cell surface RON (SW620, 5 μg/ml), 12.30 h. Further, the “RON remaining on the cell surface” value with cell surface RON (after 48 hour treatment, 5 μg/ml, three CRC cell lines) was “Less than 20%”. For the same molecule, the “cell surface RON internalized” value with cell surface RON (within 48 h) is reported as greater than 80%.

Source of the values: patent publication US20160311918A1, “Anti-Ron Monoclonal Antibodies as a Cytotoxic Drug Delivery System for Targeted Cancer Therapy” (TEXAS TECH UNIVERSITY SYSTEM, priority 2013, published 2016).
